This assay has as its target EYFP-RyR1 (full-length rabbit type 1 ryanodine receptor), expressed in RyR1/RyR3 double-null (R1R3) myotubes (rabbit) (UniProt P11716). The assay can be described thus: FRET or BRET. A general note: BRET reads energy transfer from a luciferase to a nearby fluorophore.

Sequence of EYFP-RyR1 (full-length rabbit type 1 ryanodine receptor), expressed in RyR1/RyR3 double-null (R1R3) myotubes, P11716 1-5037 (natural protein) (P11716 whole entry): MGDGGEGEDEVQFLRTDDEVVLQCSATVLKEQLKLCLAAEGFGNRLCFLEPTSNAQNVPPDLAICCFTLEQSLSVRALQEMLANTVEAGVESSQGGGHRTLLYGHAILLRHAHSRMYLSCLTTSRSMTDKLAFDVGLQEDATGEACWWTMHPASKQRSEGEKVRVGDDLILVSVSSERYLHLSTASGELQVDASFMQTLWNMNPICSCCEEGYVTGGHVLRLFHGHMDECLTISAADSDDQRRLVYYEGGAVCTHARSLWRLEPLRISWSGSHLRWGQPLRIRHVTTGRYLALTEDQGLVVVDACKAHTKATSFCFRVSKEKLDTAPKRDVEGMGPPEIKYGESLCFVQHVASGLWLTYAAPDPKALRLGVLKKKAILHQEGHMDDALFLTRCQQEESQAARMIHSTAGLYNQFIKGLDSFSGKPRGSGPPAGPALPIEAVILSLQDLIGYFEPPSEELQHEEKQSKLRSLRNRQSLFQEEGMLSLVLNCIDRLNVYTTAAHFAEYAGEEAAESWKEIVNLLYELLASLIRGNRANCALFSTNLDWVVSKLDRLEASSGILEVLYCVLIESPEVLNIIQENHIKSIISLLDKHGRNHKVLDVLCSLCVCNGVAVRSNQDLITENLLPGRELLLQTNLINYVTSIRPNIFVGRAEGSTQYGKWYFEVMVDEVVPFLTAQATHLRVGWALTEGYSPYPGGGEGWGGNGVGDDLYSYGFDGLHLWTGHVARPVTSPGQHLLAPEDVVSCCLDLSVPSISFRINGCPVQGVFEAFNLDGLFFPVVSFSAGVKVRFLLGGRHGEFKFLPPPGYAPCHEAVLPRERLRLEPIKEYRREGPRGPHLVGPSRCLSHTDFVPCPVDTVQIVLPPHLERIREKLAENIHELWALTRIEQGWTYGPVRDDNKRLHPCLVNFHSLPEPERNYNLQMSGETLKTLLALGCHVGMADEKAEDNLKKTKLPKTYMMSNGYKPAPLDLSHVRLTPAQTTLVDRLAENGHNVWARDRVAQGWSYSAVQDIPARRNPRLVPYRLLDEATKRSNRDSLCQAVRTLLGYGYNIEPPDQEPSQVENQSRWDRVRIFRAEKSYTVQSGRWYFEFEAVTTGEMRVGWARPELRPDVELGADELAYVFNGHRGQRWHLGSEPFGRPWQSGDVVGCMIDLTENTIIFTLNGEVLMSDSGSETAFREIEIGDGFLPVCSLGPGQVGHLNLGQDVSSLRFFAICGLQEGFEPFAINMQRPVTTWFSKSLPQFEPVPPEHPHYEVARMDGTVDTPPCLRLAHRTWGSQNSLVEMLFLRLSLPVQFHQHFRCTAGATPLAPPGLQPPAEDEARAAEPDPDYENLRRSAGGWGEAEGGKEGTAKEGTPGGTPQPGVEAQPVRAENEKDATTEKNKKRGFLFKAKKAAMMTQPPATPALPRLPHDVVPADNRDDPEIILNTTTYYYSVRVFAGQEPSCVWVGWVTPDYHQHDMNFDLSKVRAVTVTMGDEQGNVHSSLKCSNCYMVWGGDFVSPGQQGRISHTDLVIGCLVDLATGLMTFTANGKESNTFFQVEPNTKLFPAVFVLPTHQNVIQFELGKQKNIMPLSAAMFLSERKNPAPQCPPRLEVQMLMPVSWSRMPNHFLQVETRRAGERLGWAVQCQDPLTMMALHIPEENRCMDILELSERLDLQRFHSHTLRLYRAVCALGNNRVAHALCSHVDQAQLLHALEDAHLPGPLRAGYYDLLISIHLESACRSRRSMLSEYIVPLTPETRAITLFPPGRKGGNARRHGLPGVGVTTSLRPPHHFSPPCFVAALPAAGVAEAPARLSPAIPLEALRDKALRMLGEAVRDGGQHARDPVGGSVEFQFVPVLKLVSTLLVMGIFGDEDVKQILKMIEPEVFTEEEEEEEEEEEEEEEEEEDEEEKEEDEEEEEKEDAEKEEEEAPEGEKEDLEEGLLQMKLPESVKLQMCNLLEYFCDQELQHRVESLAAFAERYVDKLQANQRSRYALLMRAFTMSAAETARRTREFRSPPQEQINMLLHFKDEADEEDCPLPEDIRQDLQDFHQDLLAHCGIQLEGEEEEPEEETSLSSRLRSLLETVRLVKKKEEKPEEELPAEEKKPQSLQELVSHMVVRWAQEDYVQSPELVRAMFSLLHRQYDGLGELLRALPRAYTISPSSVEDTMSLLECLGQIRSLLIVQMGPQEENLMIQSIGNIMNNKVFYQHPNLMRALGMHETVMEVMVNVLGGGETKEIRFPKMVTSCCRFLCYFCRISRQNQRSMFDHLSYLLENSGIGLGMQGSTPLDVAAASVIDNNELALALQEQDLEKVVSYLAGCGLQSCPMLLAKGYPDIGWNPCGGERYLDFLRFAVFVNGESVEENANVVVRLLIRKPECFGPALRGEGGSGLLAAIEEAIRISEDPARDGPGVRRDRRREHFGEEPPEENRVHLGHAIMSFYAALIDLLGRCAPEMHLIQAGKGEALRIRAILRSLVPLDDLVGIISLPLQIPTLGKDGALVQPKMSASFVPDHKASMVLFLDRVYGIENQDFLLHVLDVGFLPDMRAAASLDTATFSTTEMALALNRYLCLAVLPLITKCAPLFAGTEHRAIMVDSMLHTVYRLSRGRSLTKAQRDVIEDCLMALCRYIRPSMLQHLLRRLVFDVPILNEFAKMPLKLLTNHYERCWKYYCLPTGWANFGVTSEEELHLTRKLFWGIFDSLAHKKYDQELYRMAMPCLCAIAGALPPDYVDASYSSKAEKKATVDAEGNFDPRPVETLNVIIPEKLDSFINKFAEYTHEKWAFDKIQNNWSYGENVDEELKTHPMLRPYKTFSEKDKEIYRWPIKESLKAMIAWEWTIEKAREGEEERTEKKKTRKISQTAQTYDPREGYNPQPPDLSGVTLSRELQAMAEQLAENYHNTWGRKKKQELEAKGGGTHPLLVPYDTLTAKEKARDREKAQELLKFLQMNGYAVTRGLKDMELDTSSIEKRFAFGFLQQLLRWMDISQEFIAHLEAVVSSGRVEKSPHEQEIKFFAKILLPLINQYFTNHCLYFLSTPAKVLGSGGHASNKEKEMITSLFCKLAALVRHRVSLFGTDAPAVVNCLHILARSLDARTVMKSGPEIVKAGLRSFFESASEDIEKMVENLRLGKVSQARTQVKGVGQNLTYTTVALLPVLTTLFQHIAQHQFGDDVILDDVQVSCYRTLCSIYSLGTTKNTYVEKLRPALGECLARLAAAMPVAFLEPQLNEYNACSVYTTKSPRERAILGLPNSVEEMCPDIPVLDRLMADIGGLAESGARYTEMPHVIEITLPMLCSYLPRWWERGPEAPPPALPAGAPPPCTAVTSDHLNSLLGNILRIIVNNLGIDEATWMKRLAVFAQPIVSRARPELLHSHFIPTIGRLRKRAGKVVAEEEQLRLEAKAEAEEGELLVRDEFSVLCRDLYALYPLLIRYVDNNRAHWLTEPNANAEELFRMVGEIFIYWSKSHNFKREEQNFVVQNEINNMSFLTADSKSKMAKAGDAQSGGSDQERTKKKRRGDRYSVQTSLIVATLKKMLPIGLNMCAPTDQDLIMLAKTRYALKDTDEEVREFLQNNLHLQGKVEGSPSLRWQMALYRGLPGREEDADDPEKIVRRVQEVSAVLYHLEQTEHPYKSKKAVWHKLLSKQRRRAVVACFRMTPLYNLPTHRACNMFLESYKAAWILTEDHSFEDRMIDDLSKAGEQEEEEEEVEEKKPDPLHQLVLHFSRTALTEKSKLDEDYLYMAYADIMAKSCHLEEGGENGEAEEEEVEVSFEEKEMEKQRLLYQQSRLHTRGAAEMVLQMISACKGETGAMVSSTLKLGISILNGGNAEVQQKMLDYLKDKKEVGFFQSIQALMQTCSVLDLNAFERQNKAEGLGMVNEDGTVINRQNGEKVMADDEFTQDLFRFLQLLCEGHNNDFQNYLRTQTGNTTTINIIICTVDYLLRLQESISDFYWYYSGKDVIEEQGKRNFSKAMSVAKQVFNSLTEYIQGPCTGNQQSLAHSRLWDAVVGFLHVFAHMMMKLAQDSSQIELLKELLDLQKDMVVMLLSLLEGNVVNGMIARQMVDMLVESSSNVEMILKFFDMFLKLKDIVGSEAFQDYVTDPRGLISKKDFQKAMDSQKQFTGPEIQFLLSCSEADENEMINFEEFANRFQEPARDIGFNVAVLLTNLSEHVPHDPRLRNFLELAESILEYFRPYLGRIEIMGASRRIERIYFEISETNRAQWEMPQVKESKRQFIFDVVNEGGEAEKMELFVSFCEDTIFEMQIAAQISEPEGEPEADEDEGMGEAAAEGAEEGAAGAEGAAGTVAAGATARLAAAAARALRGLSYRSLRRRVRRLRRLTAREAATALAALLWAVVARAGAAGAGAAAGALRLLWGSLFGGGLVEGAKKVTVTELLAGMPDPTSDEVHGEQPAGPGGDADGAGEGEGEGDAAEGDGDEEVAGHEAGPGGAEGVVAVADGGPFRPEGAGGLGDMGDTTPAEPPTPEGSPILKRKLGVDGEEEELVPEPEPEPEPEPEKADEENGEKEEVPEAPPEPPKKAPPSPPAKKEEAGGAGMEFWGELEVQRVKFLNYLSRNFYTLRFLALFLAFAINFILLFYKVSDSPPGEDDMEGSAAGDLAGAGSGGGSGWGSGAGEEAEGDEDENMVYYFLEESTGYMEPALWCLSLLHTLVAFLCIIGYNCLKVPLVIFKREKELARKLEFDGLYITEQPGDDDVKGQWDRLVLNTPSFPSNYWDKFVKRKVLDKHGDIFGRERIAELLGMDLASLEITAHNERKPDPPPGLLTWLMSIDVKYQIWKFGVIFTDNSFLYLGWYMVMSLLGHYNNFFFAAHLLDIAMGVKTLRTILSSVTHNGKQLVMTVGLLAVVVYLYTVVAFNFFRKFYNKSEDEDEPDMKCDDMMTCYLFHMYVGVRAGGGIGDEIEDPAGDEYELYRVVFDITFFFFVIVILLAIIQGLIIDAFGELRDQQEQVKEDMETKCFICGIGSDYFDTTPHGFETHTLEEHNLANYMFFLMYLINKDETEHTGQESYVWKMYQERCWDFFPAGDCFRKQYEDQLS

As for “EYFP-RyR1 (full-length rabbit type 1 ryanodine receptor), expressed in RyR1/RyR3 double-null (R1R3) myotubes, P11716 1-5037 (natural protein)”, the FRET efficiency is 8.6%.

(Values after article PMC5806685.)
